# Source: patent US10428327B2, “Compositions and methods for enhancing homologous recombination” (LIFE TECHNOLOGIES CORPORATION, priority 2016, dated 2019)
# Oligonucleotides are written 5' to 3', each unit as a sugar letter and its base; * is a phosphorothioate linkage, no mark a phosphodiester; rarer units and linkages stand in square brackets, end groups in braces. Plain capitals give the bases only. d = 2'-deoxy (DNA)
# B1: 24-3′: dsDNA donor with 24-base 3′ overhangs, annealed SEQ ID 89 and 90 (nucleic acid)
# chain 1: dG*dA*dCdTdAdCdAdAdAdGdAdCdGdAdTdGdAdCdGdAdCdAdAdGdAdAdTdTdCdTdTdAdCdGdGdCdGdTdGdCdAdGdTdGdCdTdTdCdAdGdCdCdGdCdTdAdCdC*dC*dC
# chain 2: dA*dA*dGdAdAdTdTdCdTdTdGdTdCdGdTdCdAdTdCdGdTdCdTdTdTdGdTdAdGdTdCdGdGdTdCdAdGdGdGdTdGdGdTdCdAdCdGdAdGdGdGdTdGdGdGdC*dC*dA
# modifications: further chemistry not fully specified
# B2: PS79: phosphorothioate 79-mer PAM ssDNA donor, EmGFP, SEQ ID 38 (nucleic acid)
# DNA: CATGTGGTCGGGGTAGCGGGCGAAGCACTGCACGCCGTAGGTGAAGGTGGTCACGAGGGTGGGCCAGGGCACGGGCAGC
# modifications: 5' phosphate, modified ends, chemistry not fully specified
# B3: 79: unmodified 79-mer PAM ssDNA donor, EmGFP, SEQ ID 39 (nucleic acid)
# DNA: B2 DNA
# modifications: DNA, backbone not given here
# B4: 48-50 NP: symmetric non-PAM strand ssDNA donor, EmGFP, SEQ ID 70 (nucleic acid)
# DNA: GTGCTGCTTCATGTGGTCGGGGTAGCGGGCGAAGCACTGCACGCCGTAGGTGAAGGTGGCACGAGGGTGGGCCAGGGCACGGGCAGCTTGCCGGTGG
# modifications: DNA, backbone and methylation of C not given here; further chemistry not fully specified
# B5: 30-51 P: asymmetric PAM strand ssDNA donor, EmGFP, SEQ ID 67 (nucleic acid)
# DNA: CCGTGCCCTGGCCCACCCTCGTGACCACCTTCACCTACGGCGTGCAGTGCTTCGCCCGCTACCCCGACCACATGAAGCAGC
# modifications: chemistry not given here
# B6: 30-51 NP: asymmetric non-PAM strand ssDNA donor, EmGFP, SEQ ID 68 (nucleic acid)
# DNA: GCTGCTTCATGTGGTCGGGGTAGCGGGCGAAGCACTGCACGCCGTAGGTGAAGGTGGTCACGAGGGTGGGCCAGGGCACGG
# modifications: chemistry not given here
# B7: 50-30 P: asymmetric PAM strand ssDNA donor, EmGFP, SEQ ID 65 (nucleic acid)
# DNA: CCACCGGCAAGCTGCCCGTGCCCTGGCCCACCCTCGTGACCACCTTCACCTACGGCGTGCAGTGCTTCGCCCGCTACCCCG
# modifications: DNA, backbone and methylation of C not given here; further chemistry not fully specified
# B8: 50-30 NP: asymmetric non-PAM strand ssDNA donor, EmGFP, SEQ ID 66 (nucleic acid)
# DNA: CGGGGTAGCGGGCGAAGCACTGCACGCCGTAGGTGAAGGTGGTCACGAGGGTGGGCCAGGGCACGGGCAGCTTGCCGGTGG
# modifications: chemistry not given here
# B9: 36-3′: dsDNA donor with 36-base 3′ overhangs, annealed SEQ ID 93 and 94 (nucleic acid)
# chain 1: dA*dA*dGdAdAdTdTdCdTdTdGdTdCdGdTdCdAdTdCdGdTdCdTdTdTdGdTdAdGdTdCdGdGdTdCdAdGdGdGdTdGdGdTdCdAdCdGdAdGdGdGdTdGdGdGdCdCdAdGdGdGdCdAdCdG*dG*dG
# chain 2: dG*dA*dCdTdAdCdAdAdAdGdAdCdGdAdTdGdAdCdGdAdCdAdAdGdAdAdTdTdCdTdTdAdCdGdGdCdGdTdGdCdAdGdTdGdCdTdTdCdAdGdCdCdGdCdTdAdCdCdCdCdGdAdCdC*dA*dC
# modifications: further chemistry not fully specified
# How the values were obtained:
# [1] = test system: disrupted EmGFP stable cell lines; assay: Homologous recombination (HDR) assay, gain of EmGFP function by flow cytometry; assay type: cell-based; conditions: for Avg (% GFP+ cells): sequential delivery
# Method: The JUMP-IN™ system was used to prepare […]™ HEK293 stable cell expressing EmGFP (Thermo Fisher Scientific). The gene sequence of EmGFP is described in Table 5. To create a disrupted EmGFP mutant stable cell line, a gRNA targeting the 5′-[…]-3′ (SEQ ID NO: 125) sequence in EmGFP gene was synthesized. The resulting gRNA (300 ng) was incubated with 1.5 μg of GENEART® […]™ Cas9 nuclease and used to transfect wild type EmGFP cells via electroporation. The single cell clonal isolation was carried out by limiting dilution. The EmGFP loci from non-glowing cells were amplified by PCR using a forward primer 5′-[…]-3′ (SEQ ID NO: 126) and a reverse primer 5′-[…]-3′ (SEQ ID NO: 127) and the resulting PCR products were subjected to TOPO cloning and sequencing. From these clones, a disrupted EmGFP stable cell line containing a deletion of 5′-CACCTT-3′ (SEQ ID NO: 25) was identified (Table 5). In the homologous recombination assay, the gain of EmGFP function was determined by flow cytometric analysis.
# (§1) To create homologous recombination (HR) assays, a series of gRNAs flanking the insertion site within the EmGFP gene were designed and synthesized (Table 4). Each individual gRNA was combined with GENEART™ […]™ Cas9 Nuclease to form the Cas9 protein/gRNA ribonucleoprotein complexes (Cas9 RNPs). The Cas9 RNPs were then used to transfect cells via NEON® electroporation. The genomic cleavage efficiency was then evaluated using the GENEART® Genomic Cleavage Detection kit at 48 hours post transfection. The gRNAs with highest editing efficiencies and also in close proximity to the insertion site were selected for the subsequent HR assays. For donor design of a single-stranded oligonucleotide, typically the mutation site was positioned at the center flanked by 30 to 50 nucleotides on each side. For asymmetric donor design, 30 nucleotides were placed on either the left or right arm and then 50 or 67 nucleotides on the right or left arm respectively, in both PAM and non-PAM strands. For design of a dsDNA oligonucleotide with single-stranded overhangs, the insertion element was overlapped in the center flanked by various lengths of ssDNA oligonucleotide on each side. By annealing two single-stranded oligonucleotides at 95° C. for 3 minutes, dsDNA donor molecules with either a 5′ protrusion or a 3′ protrusion were generated. To measure homologous recombination efficiency, the donor DNA was either co-transfected with Cas9 RNPs or delivered sequentially into cells via electroporation. At 48 hours post transfection, the gain of EmGFP function in reporter cell lines was determined by flow cytometric analysis with an Attune® NxT Acoustic Focusing Cytometer (Thermo Fisher Scientific). Alternatively, the genomic loci were PCR-amplified using the corresponding primers and then subjected to GENEART® Genomic Cleavage Detection assay or restriction digestion. The resulting PCR products were also subjected to TOPO cloning. Typically, 96 colonies were randomly picked for sequencing. The sequencing data were analyzed using VECTOR NTI ADVANCE® 11.5 software (Thermo Fisher Scientific).
# For each homologous recombination assay, 1.5 μg of Cas9 protein and 360 ng of gRNA were added to Resuspension Buffer R to a final volume of 7 μl, but limiting the total volume of Cas9 protein plus gRNA to less than 1 μl. The gRNA could be diluted in Buffer R if the concentration was too high. Upon mixing, the sample was incubated at room temperature for 5 to 10 minutes to form Cas9 RNPs. Meanwhile, […]™ HEK293 cells expressing either eBFP or disrupted EmGFP were detached from culture flask with TRYPLE™ Express Enzyme and then counted. Aliquots of 1×10^6 cells were washed once with DPBS without Ca^2+ and Mg^2+ and the cell pellets were resuspended in 50 μl of Resuspension Buffer R. A 5 μl aliquot of cell suspension was mixed with 7 μl of Cas9 RNPs. […] The electroporated cells were transferred to 300 μl of […]. […]
# [2] = test system: eBFP locus in HEK293 cells expressing eBFP; assay: EcoRI restriction digestion of PCR-amplified eBFP locus (FLAG tag/EcoRI insertion); assay type: cell-based; conditions: FIG. 11B, length of 3′ overhang, 48 hours
# Text: FIG. 11. Insertion of a FLAG tag along with an EcoRI site using dsDNA donor with single-stranded overhangs. (A) Various donor DNA molecules containing a 30-base FLAG tag along with an EcoRI site were designed and synthesized, including single-stranded DNA donor (ssDNA), blunt-end dsDNA donor (blunt), dsDNA donor with 5′ overhang (5′), dsDNA donor with 3′ overhang (3′). The length of overhangs varied from 6 nucleotides (6), 15 nucleotides (15) to 30 nucleotides (30). The 3′ and 5′ ends of the oligonucleotides harbored two consecutive phosphorothioate-modified bases (Table 4). The short dsDNA donors with and without overhangs were prepared by annealing two short DNA oligonucleotides. […] At 48 hours post transfection, the eBFP locus was PCR-amplified. The resulting PCR fragments were analyzed by the genomic cleavage and detection assays to determine the percentage of Indel or subjected to restriction digestion with EcoRI to determine the percentage of digestion. (B) Length of 3′ overhang. […] Alternatively, a dsDNA donor with 30-base 3′ overhang but without phosphorothioate modification (30-3′n) was used. The percentage of digestion with EcoRI was determined at 48 hours post transfection. (C) Dose effect. […] The eBFP loci were PCR-amplified. The resulting PCR fragments were analyzed by EcoRI digest. (D) Sequencing verification. The PCR fragments were cloned into E. coli and 192 clones were randomly picked for sequencing. The relative percentage of wild type (wt), NHEJ, and HDR clones derived from either ssDNA donor (ssDNA) or dsDNA with 3′ overhangs (3′ overhang) was plotted. The white rectangles represented the population of clones that contained the insert but with a point mutation. Examples of edited clones were shown in (E) (not representing the actual percentages of NHEJ and HDR). The underlined sequences represented the FLAG tag along with an RI site. FIG. 11 discloses SEQ ID NOs: 15-24, respectively, from top to bottom.
# as §1, with “The sequencing data were analyzed using VECTOR NTI ADVANCE® 11.5 software (Thermo Fisher Scientific).” left out
# [3] = Equal Mass of donor, +5 gRNA, 6 nt insertion
# [4] = Equal Molarity of donor, +5 gRNA, 6 nt insertion
Molecule,"Avg (% GFP+ cells) [1, 3] [%]","Avg (% GFP+ cells) [1, 4] [%]","Avg (% GFP+ cells) ([1]; (+3) gRNA, 10 pmol ssDNA donor) [%]","Avg (% GFP+ cells) ([1]; (+5) gRNA, 10 pmol ssDNA donor) [%]","Avg (% GFP+ cells) ([1]; (−3) gRNA, 10 pmol ssDNA donor) [%]",other results
"PS40: phosphorothioate 40-mer PAM ssDNA donor, EmGFP, SEQ ID 42 (DNA GGCGAAGCACTGCACGCCGTAGGTGAAGGTGGTCACGAGG; 5' phosphate, chemistry not fully specified)",4.35,1.79,–,–,–,–
"40: unmodified 40-mer PAM ssDNA donor, EmGFP, SEQ ID 43 (DNA GGCGAAGCACTGCACGCCGTAGGTGAAGGTGGTCACGAGG; DNA, backbone not given here) [compound 40]",2.96,1.38,–,–,–,–
B1,–,–,–,–,–,Avg (% digestion) [2]: 17.3%; Avg (% digestion) ([2]; listed as donor DNA molecules with 24-base 3′-protruded ends): approximately 15%
B2,12.94,12.53,–,–,–,–
B3,7.99,7.62,–,–,–,–
B4,–,–,9.5,26.0,18.3,"Avg (% GFP+ cells), normalized HDR efficiency (% EmGFP+ cells/% Indel) ([1]; (+5)gRNA): 38.2%; Avg (% GFP+ cells), normalized HDR efficiency (% EmGFP+ cells/% Indel) ([1]; (−3)gRNA): 26.1%"
B5,–,–,4.0,30.6,34.7,–
B6,–,–,11.3,20.6,23.7,–
B7,–,–,8.7,19.7,24.6,–
B8,–,–,4.1,30.8,30.0,–
B9,–,–,–,–,–,Avg (% digestion) [2]: 41.7%
